These results are taken from article PMC2518858.

The target of experiment [1] is MC179, the CD36-binding portion (M2 subdomain) of the CIDR1α domain of PfEMP1 from the Malayan Camp (MC) strain of P. falciparum (Plasmodium falciparum (Malayan Camp strain)). In words: cross-linking; chemical cross-linking of MC179 in solution (data not shown).
For experiment [2] the target is unchanged. Description: SEC; refolded MC179 on a Superdex 75 size exclusion column; species with the mobility of dimers separated from monomers.

The term stoichiometry N denotes the number of molecules, sites or subunits per partner or assembly.

For the substance “MC179, the CD36-binding portion (M2 subdomain) of the CIDR1α domain of PfEMP1 from the Malayan Camp (MC) strain of P. falciparum (domain or fragment)”, the stoichiometry N in experiment [1] and in experiment [2] was 2 each time.
